{
  "source": "patent US20130224191A1",
  "about": "“NOTUM PROTEIN MODULATORS AND METHODS OF USE” (priority 2010, published 2013)",
  "molecules": {"B1": {"name": "SC2.D2.2 (antibody, V domains shown)", "VH": "DVQLVESGGGLVQPGGSRKISCAASGFTFSSYGMHWVRQAPEKGLEWVAYISSSTVTTYYADTVKGRFTISRDNANNTLFLQMTSLRSEDTAMYYCSRQNWDGGYFDVWGAGTTVTVSS", "VL": "DIVLTQSLASLAVSLGQRATISCRASKSVSSSGYSYMHWYQQKPGQPPKLLIYLASNLESGVPARFSGSGSGTDFTLNIHPVEEEDAATYYCQHSRALPLTFGAGTKLELKR", "notes": "also called murine SC2.D2.2"}},
  "key": {"[1]": {"target": "T1, chimeric human/mouse Notum (Homo sapiens, UniProt Q6P988, A205S/A256S/E196D/E289D/E487K/H276R/H373G/H396Y/K251E/L360Q/L418F/L429M/L483M/M474V/N299S/P379Q/P480Q/Q248L/Q311K/R218K/R307Q/R361W/S193P/T277S/T284N/V280I/V301M/V434F/V452I/Y171H)", "T1 construct": "human mature Notum protein (residues 19-144) fused to the mouse Notum (mouse residues 150-484); His tag; made in house", "T1 sequence (Q6P988 with tags, fused parts or gaps Y171H/S193P/E196D/A205S/R218K/Q248L/K251E/A256S/H276R/T277S/V280I/T284N/E289D/N299S/V301M/R307Q/Q311K/L360Q/R361W/H373G/P379Q/H396Y/L418F/L429M/V434F/V452I/M474V/P480Q/L483M/E487K)": "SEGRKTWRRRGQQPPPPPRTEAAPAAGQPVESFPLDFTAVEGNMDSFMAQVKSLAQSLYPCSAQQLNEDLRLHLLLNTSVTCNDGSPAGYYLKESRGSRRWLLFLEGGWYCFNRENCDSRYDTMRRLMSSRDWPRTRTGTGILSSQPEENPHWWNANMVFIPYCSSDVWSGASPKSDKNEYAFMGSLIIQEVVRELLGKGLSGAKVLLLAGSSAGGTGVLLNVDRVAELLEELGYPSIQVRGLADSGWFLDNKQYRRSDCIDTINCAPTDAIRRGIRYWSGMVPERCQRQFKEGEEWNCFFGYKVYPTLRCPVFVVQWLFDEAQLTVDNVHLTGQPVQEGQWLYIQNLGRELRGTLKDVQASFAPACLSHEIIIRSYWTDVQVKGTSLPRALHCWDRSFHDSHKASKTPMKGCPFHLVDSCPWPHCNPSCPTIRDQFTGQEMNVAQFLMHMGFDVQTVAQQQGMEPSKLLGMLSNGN", "test": "Epitope mapping ELISA, chimeric Notum", "format": "binding", "source_text": "To better understand the structural basis for the interaction of SC2.D2.2 with human Notum, a chimeric Notum protein was fabricated. This approach takes advantage of the fact that the orthologs are structurally related. To that end a chimeric Notum molecule composed of the N terminal of the human mature Notum protein (residues 19-144) fused to the mouse Notum (mouse residues 150-484) (genes both consistent with Example 7) was generated and expressed in a similar manner to that set forth in previous Examples. The BamHI restriction cleavage site in human Notum gene was used for construction of in-frame fusion Notum chimeric protein. An expression vector was then constructed containing the His tagged chimeric Notum sequence.\n(§1) Binding of SC2.D2.2 and other mouse mAbs to purified Notum molecules generated from transient transfection of Human and Mouse Notum cDNAs were tested using ELISA assay with human Notum, mouse Notum and chimeric human/mouse Notum coated directly on ELISA plate. Binding of anti-Notum mAbs was detected with HRP-conjugated goat anti mouse antibody and followed by colorimetric horseradish peroxidase substrate (TMB substrate Thermo Scientific). The absorbance of each well of the ELISA plates was measured at 450 nm on a microplate autoreader."}, "[2]": {"test_system": "Wnt3A-mediated induction of luciferase in the 293.TCF cells", "test": "Wnt3A canonical signaling assay, bioactivity of Notum constructs", "format": "cell-based, human", "conditions": "without added Notum", "method_in_brief": "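293.TCF cells (HEK 293T stably carrying a TCF-driven GFP/luciferase reporter), 2.5×10^4 per well, serum-starved 23 h, then given Notum proteins 1 h before Wnt3A or control L-cell conditioned medium.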"}, "[3]": {"target": "T2, Notum (Homo sapiens, UniProt Q6P988)", "T2 sequence (Q6P988 20-496)": "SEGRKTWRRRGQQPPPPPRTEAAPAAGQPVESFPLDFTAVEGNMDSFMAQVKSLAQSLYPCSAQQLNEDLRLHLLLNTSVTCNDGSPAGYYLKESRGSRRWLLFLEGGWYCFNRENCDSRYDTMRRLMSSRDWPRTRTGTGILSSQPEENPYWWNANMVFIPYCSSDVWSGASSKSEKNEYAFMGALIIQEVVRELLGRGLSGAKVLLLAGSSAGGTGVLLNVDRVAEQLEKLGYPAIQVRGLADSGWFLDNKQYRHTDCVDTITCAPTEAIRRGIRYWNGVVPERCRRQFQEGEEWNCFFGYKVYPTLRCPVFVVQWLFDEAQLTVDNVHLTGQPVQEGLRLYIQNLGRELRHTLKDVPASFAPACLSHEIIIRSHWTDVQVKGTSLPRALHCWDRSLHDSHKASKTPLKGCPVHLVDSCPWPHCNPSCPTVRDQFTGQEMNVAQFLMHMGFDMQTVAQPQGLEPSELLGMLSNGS", "test": "Epitope mapping ELISA, human Notum", "format": "binding", "parameters": "made in house", "method": "as §1"}},
  "data": [
    {"molecule": "B1", "values": [
      {"measurement": "binding to Notum chimeric protein", "setting": "[1]", "result": "confirmed the binding"},
      {"measurement": "location of epitope", "setting": "[1]", "result": "within the first 135 residues of the N terminus of the human Notum protein"},
      {"measurement": "effect of antibody alone on induction of luciferase due to Wnt3A CM", "setting": "[2]", "result": "does not inhibit the induction of luciferase due to Wnt3A CM"},
      {"measurement": "binding to human Notum", "setting": "[3]", "result": "confirmed the binding"}
    ]}
  ]
}
